Results from the Human Domainome abundance scans (Beltran et al. 2025).
± gives the uncertainty stated by the source.

Test: abundance fitness (aPCA) (normalised: wild type 0, dead -1); higher = more abundant; growth selection in yeast, the domain comes from the species named
Details: Homo sapiens

Substance | abundance fitness
Lipoamide acyltransferase component of branched-chain alpha-keto acid dehydrogenase complex, mitochondrial A173C, P11182 | -0.163 ± 0.092
Lipoamide acyltransferase component of branched-chain alpha-keto acid dehydrogenase complex, mitochondrial A173D, P11182 | -0.296 ± 0.067
Lipoamide acyltransferase component of branched-chain alpha-keto acid dehydrogenase complex, mitochondrial A173E, P11182 | -0.219 ± 0.07
Lipoamide acyltransferase component of branched-chain alpha-keto acid dehydrogenase complex, mitochondrial A173F, P11182 | -0.439 ± 0.096
Lipoamide acyltransferase component of branched-chain alpha-keto acid dehydrogenase complex, mitochondrial A173G, P11182 | -0.287 ± 0.036
Lipoamide acyltransferase component of branched-chain alpha-keto acid dehydrogenase complex, mitochondrial A173K, P11182 | -0.391 ± 0.068
Lipoamide acyltransferase component of branched-chain alpha-keto acid dehydrogenase complex, mitochondrial A173L, P11182 | -0.411 ± 0.058
Lipoamide acyltransferase component of branched-chain alpha-keto acid dehydrogenase complex, mitochondrial A173M, P11182 | -0.135 ± 0.057
Lipoamide acyltransferase component of branched-chain alpha-keto acid dehydrogenase complex, mitochondrial A173N, P11182 | -0.424 ± 0.14
Lipoamide acyltransferase component of branched-chain alpha-keto acid dehydrogenase complex, mitochondrial A173P, P11182 | -0.406 ± 0.087
Lipoamide acyltransferase component of branched-chain alpha-keto acid dehydrogenase complex, mitochondrial A173Q, P11182 | -0.441 ± 0.048
Lipoamide acyltransferase component of branched-chain alpha-keto acid dehydrogenase complex, mitochondrial A173R, P11182 | -0.608 ± 0.04
Lipoamide acyltransferase component of branched-chain alpha-keto acid dehydrogenase complex, mitochondrial A173S, P11182 | -0.186 ± 0.046
Lipoamide acyltransferase component of branched-chain alpha-keto acid dehydrogenase complex, mitochondrial A173T, P11182 | -0.05 ± 0.042
Lipoamide acyltransferase component of branched-chain alpha-keto acid dehydrogenase complex, mitochondrial A173V, P11182 | -0.059 ± 0.054
Lipoamide acyltransferase component of branched-chain alpha-keto acid dehydrogenase complex, mitochondrial A173W, P11182 | -0.279 ± 0.071
Lipoamide acyltransferase component of branched-chain alpha-keto acid dehydrogenase complex, mitochondrial A173Y, P11182 | -0.153 ± 0.19
Lipoamide acyltransferase component of branched-chain alpha-keto acid dehydrogenase complex, mitochondrial A176C, P11182 | -0.173 ± 0.051
Lipoamide acyltransferase component of branched-chain alpha-keto acid dehydrogenase complex, mitochondrial A176D, P11182 | -0.047 ± 0.043
Lipoamide acyltransferase component of branched-chain alpha-keto acid dehydrogenase complex, mitochondrial A176E, P11182 | -0.043 ± 0.06
Lipoamide acyltransferase component of branched-chain alpha-keto acid dehydrogenase complex, mitochondrial A176G, P11182 | -0.074 ± 0.038
Lipoamide acyltransferase component of branched-chain alpha-keto acid dehydrogenase complex, mitochondrial A176H, P11182 | -0.128 ± 0.06
Lipoamide acyltransferase component of branched-chain alpha-keto acid dehydrogenase complex, mitochondrial A176I, P11182 | -0.115 ± 0.089
Lipoamide acyltransferase component of branched-chain alpha-keto acid dehydrogenase complex, mitochondrial A176K, P11182 | -0.312 ± 0.065

Substance | abundance fitness
Lipoamide acyltransferase component of branched-chain alpha-keto acid dehydrogenase complex, mitochondrial A176L, P11182 | -0.21 ± 0.046
Lipoamide acyltransferase component of branched-chain alpha-keto acid dehydrogenase complex, mitochondrial A176M, P11182 | -0.127 ± 0.043
Lipoamide acyltransferase component of branched-chain alpha-keto acid dehydrogenase complex, mitochondrial A176N, P11182 | -0.113 ± 0.097
Lipoamide acyltransferase component of branched-chain alpha-keto acid dehydrogenase complex, mitochondrial A176P, P11182 | -0.203 ± 0.043
Lipoamide acyltransferase component of branched-chain alpha-keto acid dehydrogenase complex, mitochondrial A176Q, P11182 | 0.017 ± 0.058
Lipoamide acyltransferase component of branched-chain alpha-keto acid dehydrogenase complex, mitochondrial A176R, P11182 | -0.143 ± 0.036
Lipoamide acyltransferase component of branched-chain alpha-keto acid dehydrogenase complex, mitochondrial A176S, P11182 | -0.036 ± 0.039
Lipoamide acyltransferase component of branched-chain alpha-keto acid dehydrogenase complex, mitochondrial A176T, P11182 | -0.067 ± 0.051
Lipoamide acyltransferase component of branched-chain alpha-keto acid dehydrogenase complex, mitochondrial A176V, P11182 | -0.168 ± 0.041
Lipoamide acyltransferase component of branched-chain alpha-keto acid dehydrogenase complex, mitochondrial A176W, P11182 | -0.473 ± 0.045
Lipoamide acyltransferase component of branched-chain alpha-keto acid dehydrogenase complex, mitochondrial A176Y, P11182 | -0.16 ± 0.06
Lipoamide acyltransferase component of branched-chain alpha-keto acid dehydrogenase complex, mitochondrial D197A, P11182 | -0.235 ± 0.036
Lipoamide acyltransferase component of branched-chain alpha-keto acid dehydrogenase complex, mitochondrial D197C, P11182 | -0.319 ± 0.095
Lipoamide acyltransferase component of branched-chain alpha-keto acid dehydrogenase complex, mitochondrial D197E, P11182 | -0.098 ± 0.05
Lipoamide acyltransferase component of branched-chain alpha-keto acid dehydrogenase complex, mitochondrial D197F, P11182 | -0.26 ± 0.17
Lipoamide acyltransferase component of branched-chain alpha-keto acid dehydrogenase complex, mitochondrial D197H, P11182 | 0.025 ± 0.11
Lipoamide acyltransferase component of branched-chain alpha-keto acid dehydrogenase complex, mitochondrial D197I, P11182 | -1.31 ± 0.15
Lipoamide acyltransferase component of branched-chain alpha-keto acid dehydrogenase complex, mitochondrial D197K, P11182 | -0.23 ± 0.048
Lipoamide acyltransferase component of branched-chain alpha-keto acid dehydrogenase complex, mitochondrial D197L, P11182 | -0.337 ± 0.055
Lipoamide acyltransferase component of branched-chain alpha-keto acid dehydrogenase complex, mitochondrial D197M, P11182 | -0.382 ± 0.082
Lipoamide acyltransferase component of branched-chain alpha-keto acid dehydrogenase complex, mitochondrial D197P, P11182 | -0.76 ± 0.13
Lipoamide acyltransferase component of branched-chain alpha-keto acid dehydrogenase complex, mitochondrial D197Q, P11182 | -0.183 ± 0.044
Lipoamide acyltransferase component of branched-chain alpha-keto acid dehydrogenase complex, mitochondrial D197S, P11182 | -0.205 ± 0.041
Lipoamide acyltransferase component of branched-chain alpha-keto acid dehydrogenase complex, mitochondrial D197T, P11182 | -0.45 ± 0.06
